Source: publication PMC55327 (Genome Biology, 2001)

How the values were obtained:
[1] = system: C=C(O[C@@H]1C=C(C(=O)O)C=C[C@H]1O)C(=O)O; test: purified protein; format: biochemical, Salmonella enterica; conditions: 32°C, 40–75 nM enzyme, 0.1 mg/ml bovine serum albumin
[2] = biological target: T1, *AatIβ (periplasmic aromatic aminotransferase) (Pseudomonas aeruginosa, UniProt Q9I0V2); test: aromatic aminotransferase activity assay; format: biochemical; conditions: activity followed through purification
T1 sequence (Q9I0V2 29-374): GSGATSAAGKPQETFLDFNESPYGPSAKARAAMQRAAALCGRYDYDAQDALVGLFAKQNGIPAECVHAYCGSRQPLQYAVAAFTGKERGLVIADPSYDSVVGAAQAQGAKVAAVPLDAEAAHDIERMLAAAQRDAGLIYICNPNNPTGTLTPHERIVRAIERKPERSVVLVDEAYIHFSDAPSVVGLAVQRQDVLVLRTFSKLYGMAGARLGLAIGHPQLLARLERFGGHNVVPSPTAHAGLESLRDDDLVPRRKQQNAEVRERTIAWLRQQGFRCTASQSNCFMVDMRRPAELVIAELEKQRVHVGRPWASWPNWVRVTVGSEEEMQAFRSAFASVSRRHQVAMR

[3] = system: C=C(O[C@@H]1C=C(C(=O)O)C=C[C@H]1O)C(=O)O; test: purified protein; format: biochemical, Pantoea agglomerans; conditions: 32°C, 40–75 nM enzyme, 0.1 mg/ml bovine serum albumin
[4] = substrate: C=C(O[C@@H]1C=C(C(=O)O)C=C[C@H]1O)C(=O)O; test: purified protein; format: biochemical, Pseudomonas aeruginosa; conditions: 32°C, 40–75 nM enzyme, 0.1 mg/ml bovine serum albumin

Question: Which results are given for “*AroQ (Salmonella typhimurium periplasmic chorismate mutase) (Salmonella enterica subsp. enterica serovar Typhimurium)”?
Answer: Km [1]: 142 µM; kcat [1]: 8.9 s⁻¹

Question: With `N[C@@H](Cc1ccccc1)C(=O)O` [phenylalanine] as the molecule, how does the “aromatic aminotransferase activity assay” value ([2]; co-substrate α-ketoglutarate) read?
Answer: phenylalanine and α-ketoglutarate were used as the substrates, unless indicated otherwise

Question: With `O=C(O)CCC(=O)C(=O)O` [α-ketoglutarate] as the molecule, how does the “aromatic aminotransferase activity assay” value ([2]; co-substrate phenylalanine) read?
Answer: phenylalanine and α-ketoglutarate were used as the substrates, unless indicated otherwise

Question: With “*AroQ (Erwinia herbicola periplasmic chorismate mutase) (Pantoea agglomerans)” as the molecule, how does the Km [3] read?
Answer: 169 µM

Question: What about the kcat [3] of the same molecule?
Answer: 9.7 s⁻¹

B1: *AroQ (Pseudomonas aeruginosa periplasmic chorismate mutase) (Pseudomonas aeruginosa PAO1) (protein)
chain: QPLSPALQQLLSLSSQRLQLADQVAQSKAQSGKAVQDSPREEQQLQMLAGQAGSHGVGAEQVRLLFAAQIEANKLVQYRLLSRPLPDAGQAVDLERIRSRLNQLNLELLRGYAPALAELRVDDCRPRLNQALQRQVRVDRLDELHAIALSRAAGDLCHWAEL
Question: How did the kcat [4] turn out when B1 was run?
Answer: 6.4 s⁻¹
